Among the data in patent US20220306758A1 are EC50 values, retold here.

The assay addresses cynomolgus CD3 on mfCD3 engineered Jurkat cells (cynomolgus CD3ε and CD3δ in place of the human versions) (cynomolgus) (UniProt Q95LI5). In words: flow cytometry on mfCD3 engineered Jurkat cells, median EC50, n=2.

Sequence of cynomolgus CD3 on mfCD3 engineered Jurkat cells (cynomolgus CD3ε and CD3δ in place of the human versions) (cynomolgus) (Q95LI5 22-198, stated change not applied, chain 1 of 2): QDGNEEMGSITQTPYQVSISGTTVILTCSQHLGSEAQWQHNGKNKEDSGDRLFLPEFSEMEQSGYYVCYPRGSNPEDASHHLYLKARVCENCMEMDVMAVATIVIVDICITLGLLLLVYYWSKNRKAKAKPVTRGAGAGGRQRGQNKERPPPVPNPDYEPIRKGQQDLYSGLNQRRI
Sequence of cynomolgus CD3 on mfCD3 engineered Jurkat cells (cynomolgus CD3ε and CD3δ in place of the human versions) (cynomolgus) (Q95LI8 22-171, stated change not applied, chain 2 of 2, further chain): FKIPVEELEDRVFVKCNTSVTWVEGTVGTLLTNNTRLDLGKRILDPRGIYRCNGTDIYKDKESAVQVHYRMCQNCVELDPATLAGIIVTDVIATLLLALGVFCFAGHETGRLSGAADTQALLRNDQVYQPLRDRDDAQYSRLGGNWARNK
Sequence of REGN5458 (bsAb25441D), anti-BCMA x anti-CD3 bispecific antibody (VH): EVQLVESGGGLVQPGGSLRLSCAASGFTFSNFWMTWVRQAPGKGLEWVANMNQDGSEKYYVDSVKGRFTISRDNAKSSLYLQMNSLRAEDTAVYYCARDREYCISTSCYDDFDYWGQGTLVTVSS
Sequence of REGN5458 (bsAb25441D), anti-BCMA x anti-CD3 bispecific antibody (VH): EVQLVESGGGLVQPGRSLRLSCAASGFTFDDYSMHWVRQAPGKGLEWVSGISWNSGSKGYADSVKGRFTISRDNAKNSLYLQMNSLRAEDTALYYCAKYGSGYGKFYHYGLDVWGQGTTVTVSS
Sequence of REGN5458 (bsAb25441D), anti-BCMA x anti-CD3 bispecific antibody (VL): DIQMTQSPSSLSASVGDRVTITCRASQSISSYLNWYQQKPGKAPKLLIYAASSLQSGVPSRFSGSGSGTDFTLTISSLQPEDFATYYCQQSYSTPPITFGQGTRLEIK

Regarding “REGN5458 (bsAb25441D), anti-BCMA x anti-CD3 bispecific antibody”, the EC50 – broadly, the concentration needed to bring the measured effect to its halfway point – was found to be 15.1 nM.
